From patent US20220040297A1 (Chugai, published 2022)

Molecular target: CD3ε homodimer protein (human, UniProt P07766 23-126, limits assumed)
Assay: SPR Biacore T200, CD3e homodimer on CM4 chip, antibody as analyte, 25 C
Procedure: An appropriate amount of CD3ε homodimer protein was immobilized onto Sensor chip CM4 (GE Healthcare Japan Corp.) by the amine coupling method. Then, the antibody having an appropriate concentration was injected thereto as an analyte and allowed to interact with the CD3ε homodimer protein on the sensor chip. Then, the sensor chip was regenerated by the injection of 10 mmol/L glycine-HCl (pH 1.5). The assay was conducted at 25° C., and HBS-EP+ (GE Healthcare Japan Corp.) was used as a running buffer. […] Each parameter was calculated using Biacore T200 Evaluation Software (GE Healthcare Japan Corp.).
Specifically, when the amount of the antibody comprising CE115HA000 bound was defined as X and the amount of the H chain one-amino acid altered form bound was defined as Y, a value of Z (ratio of amounts bound)=Y/X was used.

Sequence of CD3ε homodimer protein (P07766 23-126 limits assumed): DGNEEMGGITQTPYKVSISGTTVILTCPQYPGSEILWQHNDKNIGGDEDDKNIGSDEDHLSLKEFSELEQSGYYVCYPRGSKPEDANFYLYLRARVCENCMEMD

Binder | KD ratio (KD of CE115HA000/KD of altered form)
CE115HA000 I51E one-arm antibody (antibody, human IgG1, kappa, L234A L235A, N297A, name in Kabat numbering) heavy: QVQLVESGGGVVQPGRSLRLSCAASGFTFSNAWMHWVRQAPGKGLEWVAQEKAKSNNYATYYAESVKGRFTISRDDSKNSLYLQMNSLKTEDTAVYYCRYVHYGAYYGVDAWGQGTTVTVSSASTKGPSVFPLAPSSKSTSGGTAALGCLVKDYFPEPVTVSWNSGALTSGVHTFPAVLQSSGLYSLSSVVTVPSSSLGTQTYICNVNHKPSNTKVDKKVEPKSCDKTHTCPPCPAPEAAGGPSVFLFPPKPKDTLMISRTPEVTCVVVDVSHEDPEVKFNWYVDGVEVHNAKTKPREEQYASTYRVVSVLTVLHQDWLNGKEYKCKVSNKALPAPIEKTISKAKGQPREPQVYTLPPSRCELTKNQVSLSCAVKGFYPSDIAVEWESNGQPENNYKTTPPVLDSDGSFFLVSKLTVDKSRWQQGNVFSCSVMHEALHNHYTQKSLSLSPDYKDDDDK EPKSSDKTHTCPPCPAPELLGGPSVFLFPPKPKDTLMISRTPEVTCVVVDVSHEDPEVKFNWYVDGVEVHNAKTKPREEQYNSTYRVVSVLTVLHQDWLNGKEYKCKVSNKALPAPIEKTISKAKGQPREPQVCTLPPSRDELTKNQVSLWCLVKGFYPSDIAVEWESNGQPENNYKTTPPVLDSDGSFFLYSKLTVDKSRWQQGNVFSCSVMHEALHNRYTQKSLSLSP light: DIVMTQSPLSLPVTPGEPASISCRSSQSLVHSNRNTYLHWYQQKPGQAPRLLIYKVSNRFSGVPDRFSGSGSGTDFTLKISRVEAEDVGVYYCGQGTQVPYTFGQGTKLEIKRTVAAPSVFIFPPSDEQLKSGTASVVCLLNNFYPREAKVQWKVDNALQSGNSQESVTEQDSKDSTYSLSSTLTLSKADYEKHKVYACEVTHQGLSSPVTKSFNRGEC | 0.84
CE115HA000 K52E one-arm antibody (antibody, human IgG1, kappa, L234A L235A, N297A, name in Kabat numbering) heavy: QVQLVESGGGVVQPGRSLRLSCAASGFTFSNAWMHWVRQAPGKGLEWVAQIEAKSNNYATYYAESVKGRFTISRDDSKNSLYLQMNSLKTEDTAVYYCRYVHYGAYYGVDAWGQGTTVTVSSASTKGPSVFPLAPSSKSTSGGTAALGCLVKDYFPEPVTVSWNSGALTSGVHTFPAVLQSSGLYSLSSVVTVPSSSLGTQTYICNVNHKPSNTKVDKKVEPKSCDKTHTCPPCPAPEAAGGPSVFLFPPKPKDTLMISRTPEVTCVVVDVSHEDPEVKFNWYVDGVEVHNAKTKPREEQYASTYRVVSVLTVLHQDWLNGKEYKCKVSNKALPAPIEKTISKAKGQPREPQVYTLPPSRCELTKNQVSLSCAVKGFYPSDIAVEWESNGQPENNYKTTPPVLDSDGSFFLVSKLTVDKSRWQQGNVFSCSVMHEALHNHYTQKSLSLSPDYKDDDDK EPKSSDKTHTCPPCPAPELLGGPSVFLFPPKPKDTLMISRTPEVTCVVVDVSHEDPEVKFNWYVDGVEVHNAKTKPREEQYNSTYRVVSVLTVLHQDWLNGKEYKCKVSNKALPAPIEKTISKAKGQPREPQVCTLPPSRDELTKNQVSLWCLVKGFYPSDIAVEWESNGQPENNYKTTPPVLDSDGSFFLYSKLTVDKSRWQQGNVFSCSVMHEALHNRYTQKSLSLSP light: DIVMTQSPLSLPVTPGEPASISCRSSQSLVHSNRNTYLHWYQQKPGQAPRLLIYKVSNRFSGVPDRFSGSGSGTDFTLKISRVEAEDVGVYYCGQGTQVPYTFGQGTKLEIKRTVAAPSVFIFPPSDEQLKSGTASVVCLLNNFYPREAKVQWKVDNALQSGNSQESVTEQDSKDSTYSLSSTLTLSKADYEKHKVYACEVTHQGLSSPVTKSFNRGEC | 19.8
CE115HA000 N76S one-arm antibody (antibody, human IgG1, kappa, L234A L235A, N297A, name in Kabat numbering) heavy: QVQLVESGGGVVQPGRSLRLSCAASGFTFSNAWMHWVRQAPGKGLEWVAQIKAKSNNYATYYAESVKGRFTISRDDSKSSLYLQMNSLKTEDTAVYYCRYVHYGAYYGVDAWGQGTTVTVSSASTKGPSVFPLAPSSKSTSGGTAALGCLVKDYFPEPVTVSWNSGALTSGVHTFPAVLQSSGLYSLSSVVTVPSSSLGTQTYICNVNHKPSNTKVDKKVEPKSCDKTHTCPPCPAPEAAGGPSVFLFPPKPKDTLMISRTPEVTCVVVDVSHEDPEVKFNWYVDGVEVHNAKTKPREEQYASTYRVVSVLTVLHQDWLNGKEYKCKVSNKALPAPIEKTISKAKGQPREPQVYTLPPSRCELTKNQVSLSCAVKGFYPSDIAVEWESNGQPENNYKTTPPVLDSDGSFFLVSKLTVDKSRWQQGNVFSCSVMHEALHNHYTQKSLSLSPDYKDDDDK EPKSSDKTHTCPPCPAPELLGGPSVFLFPPKPKDTLMISRTPEVTCVVVDVSHEDPEVKFNWYVDGVEVHNAKTKPREEQYNSTYRVVSVLTVLHQDWLNGKEYKCKVSNKALPAPIEKTISKAKGQPREPQVCTLPPSRDELTKNQVSLWCLVKGFYPSDIAVEWESNGQPENNYKTTPPVLDSDGSFFLYSKLTVDKSRWQQGNVFSCSVMHEALHNRYTQKSLSLSP light: DIVMTQSPLSLPVTPGEPASISCRSSQSLVHSNRNTYLHWYQQKPGQAPRLLIYKVSNRFSGVPDRFSGSGSGTDFTLKISRVEAEDVGVYYCGQGTQVPYTFGQGTKLEIKRTVAAPSVFIFPPSDEQLKSGTASVVCLLNNFYPREAKVQWKVDNALQSGNSQESVTEQDSKDSTYSLSSTLTLSKADYEKHKVYACEVTHQGLSSPVTKSFNRGEC | 0.34
CE115HA000 S52cA one-arm antibody (antibody, human IgG1, kappa, L234A L235A, N297A, name in Kabat numbering) heavy: QVQLVESGGGVVQPGRSLRLSCAASGFTFSNAWMHWVRQAPGKGLEWVAQIKAKANNYATYYAESVKGRFTISRDDSKNSLYLQMNSLKTEDTAVYYCRYVHYGAYYGVDAWGQGTTVTVSSASTKGPSVFPLAPSSKSTSGGTAALGCLVKDYFPEPVTVSWNSGALTSGVHTFPAVLQSSGLYSLSSVVTVPSSSLGTQTYICNVNHKPSNTKVDKKVEPKSCDKTHTCPPCPAPEAAGGPSVFLFPPKPKDTLMISRTPEVTCVVVDVSHEDPEVKFNWYVDGVEVHNAKTKPREEQYASTYRVVSVLTVLHQDWLNGKEYKCKVSNKALPAPIEKTISKAKGQPREPQVYTLPPSRCELTKNQVSLSCAVKGFYPSDIAVEWESNGQPENNYKTTPPVLDSDGSFFLVSKLTVDKSRWQQGNVFSCSVMHEALHNHYTQKSLSLSPDYKDDDDK EPKSSDKTHTCPPCPAPELLGGPSVFLFPPKPKDTLMISRTPEVTCVVVDVSHEDPEVKFNWYVDGVEVHNAKTKPREEQYNSTYRVVSVLTVLHQDWLNGKEYKCKVSNKALPAPIEKTISKAKGQPREPQVCTLPPSRDELTKNQVSLWCLVKGFYPSDIAVEWESNGQPENNYKTTPPVLDSDGSFFLYSKLTVDKSRWQQGNVFSCSVMHEALHNRYTQKSLSLSP light: DIVMTQSPLSLPVTPGEPASISCRSSQSLVHSNRNTYLHWYQQKPGQAPRLLIYKVSNRFSGVPDRFSGSGSGTDFTLKISRVEAEDVGVYYCGQGTQVPYTFGQGTKLEIKRTVAAPSVFIFPPSDEQLKSGTASVVCLLNNFYPREAKVQWKVDNALQSGNSQESVTEQDSKDSTYSLSSTLTLSKADYEKHKVYACEVTHQGLSSPVTKSFNRGEC | 0.67
CE115HA000 T57N one-arm antibody (antibody, human IgG1, kappa, L234A L235A, N297A, name in Kabat numbering) heavy: QVQLVESGGGVVQPGRSLRLSCAASGFTFSNAWMHWVRQAPGKGLEWVAQIKAKSNNYANYYAESVKGRFTISRDDSKNSLYLQMNSLKTEDTAVYYCRYVHYGAYYGVDAWGQGTTVTVSSASTKGPSVFPLAPSSKSTSGGTAALGCLVKDYFPEPVTVSWNSGALTSGVHTFPAVLQSSGLYSLSSVVTVPSSSLGTQTYICNVNHKPSNTKVDKKVEPKSCDKTHTCPPCPAPEAAGGPSVFLFPPKPKDTLMISRTPEVTCVVVDVSHEDPEVKFNWYVDGVEVHNAKTKPREEQYASTYRVVSVLTVLHQDWLNGKEYKCKVSNKALPAPIEKTISKAKGQPREPQVYTLPPSRCELTKNQVSLSCAVKGFYPSDIAVEWESNGQPENNYKTTPPVLDSDGSFFLVSKLTVDKSRWQQGNVFSCSVMHEALHNHYTQKSLSLSPDYKDDDDK EPKSSDKTHTCPPCPAPELLGGPSVFLFPPKPKDTLMISRTPEVTCVVVDVSHEDPEVKFNWYVDGVEVHNAKTKPREEQYNSTYRVVSVLTVLHQDWLNGKEYKCKVSNKALPAPIEKTISKAKGQPREPQVCTLPPSRDELTKNQVSLWCLVKGFYPSDIAVEWESNGQPENNYKTTPPVLDSDGSFFLYSKLTVDKSRWQQGNVFSCSVMHEALHNRYTQKSLSLSP light: DIVMTQSPLSLPVTPGEPASISCRSSQSLVHSNRNTYLHWYQQKPGQAPRLLIYKVSNRFSGVPDRFSGSGSGTDFTLKISRVEAEDVGVYYCGQGTQVPYTFGQGTKLEIKRTVAAPSVFIFPPSDEQLKSGTASVVCLLNNFYPREAKVQWKVDNALQSGNSQESVTEQDSKDSTYSLSSTLTLSKADYEKHKVYACEVTHQGLSSPVTKSFNRGEC | 9.9
CE115HA000 W33A one-arm antibody (antibody, human IgG1, kappa, L234A L235A, N297A, name in Kabat numbering) heavy: QVQLVESGGGVVQPGRSLRLSCAASGFTFSNAAMHWVRQAPGKGLEWVAQIKAKSNNYATYYAESVKGRFTISRDDSKNSLYLQMNSLKTEDTAVYYCRYVHYGAYYGVDAWGQGTTVTVSSASTKGPSVFPLAPSSKSTSGGTAALGCLVKDYFPEPVTVSWNSGALTSGVHTFPAVLQSSGLYSLSSVVTVPSSSLGTQTYICNVNHKPSNTKVDKKVEPKSCDKTHTCPPCPAPEAAGGPSVFLFPPKPKDTLMISRTPEVTCVVVDVSHEDPEVKFNWYVDGVEVHNAKTKPREEQYASTYRVVSVLTVLHQDWLNGKEYKCKVSNKALPAPIEKTISKAKGQPREPQVYTLPPSRCELTKNQVSLSCAVKGFYPSDIAVEWESNGQPENNYKTTPPVLDSDGSFFLVSKLTVDKSRWQQGNVFSCSVMHEALHNHYTQKSLSLSPDYKDDDDK EPKSSDKTHTCPPCPAPELLGGPSVFLFPPKPKDTLMISRTPEVTCVVVDVSHEDPEVKFNWYVDGVEVHNAKTKPREEQYNSTYRVVSVLTVLHQDWLNGKEYKCKVSNKALPAPIEKTISKAKGQPREPQVCTLPPSRDELTKNQVSLWCLVKGFYPSDIAVEWESNGQPENNYKTTPPVLDSDGSFFLYSKLTVDKSRWQQGNVFSCSVMHEALHNRYTQKSLSLSP light: DIVMTQSPLSLPVTPGEPASISCRSSQSLVHSNRNTYLHWYQQKPGQAPRLLIYKVSNRFSGVPDRFSGSGSGTDFTLKISRVEAEDVGVYYCGQGTQVPYTFGQGTKLEIKRTVAAPSVFIFPPSDEQLKSGTASVVCLLNNFYPREAKVQWKVDNALQSGNSQESVTEQDSKDSTYSLSSTLTLSKADYEKHKVYACEVTHQGLSSPVTKSFNRGEC | 23
